{
  "source": "patent US20210198377A1",
  "about": "(XDCEXPLORER SHANGHAI, published 2021)",
  "binders": {"B1": {"name": "12B12C7C3-MMAF (antibody, DAR 8, V domains shown)", "VH": "DVQLVESGGGLVQPGGSRKLSCAASGFTFSNFGMHWVRQAPEKGLEWVAYISSGSTSFYYADTVKGRFTISRDNPKNTLFLQMTSLRSEDTAMYYCSRTNSLLRGFFDAWGAGTTVTVSS", "VL": "DIVLTQSPASLAVSLGQRATISCRASQSVSSSSYTYLHWYQQKPGQPPKLLIKSASNLESGVPARFSGTGSGTDFTLNIHPVEEEDTATYYCQHSWEIPLTFGAGTKLELK", "modifications": "MC-MMAF on cysteines after TCEP reduction, sites not stated"}, "B2": {"name": "39A11G5F2-MMAF (antibody, DAR 8, V domains shown)", "VH": "QVQLQQSGAELMKPGASMRLSCKATGYTFTGYWLEWIKRRPGHGLEWIGEILPGRGSTNYNEKFKGKATFTAETSSNTAYMQLTSLTTEDSAIYYCARGGRDFDNWGQGTTLTVSS", "VL": "DIQMTQSTSSLSASLGDRVTISCSASQGINNHLNWYQQKPDGTVKLLIYYTSSLHSGVPSRFSGSGSGTDYSLTISNLEPEDIAIYYCQQFSKLPYTFGGGTKVEMK", "modifications": "MC-MMAF on cysteines after TCEP reduction, sites not stated"}, "B3": {"name": "52C9E9F6-MMAF (antibody, DAR 8, V domains shown)", "VH": "QVQLQQSGAELMKPGASVKLSCKATGYTFTGYWIEWIKQRPGHGLEWIGEILPGRGSTDYNEKFKGKATFTADTSSNTAYMQLSSLTTEDSAIYYCTRGRLDFTYWGQGTLVTVSA", "VL": "B2 VL with S7T, N30R, H32Y, I85T, F91Y, L94V, Y96W, V104L, M106I", "modifications": "MC-MMAF on cysteines after TCEP reduction, sites not stated"}, "B4": {"name": "5G4H10G5-MMAF (antibody, DAR 8, V domains shown)", "VH": "EVQLVESGGDLVQPGGSLKLFCAASGFTFSTYGLSWVRQTPDKRLELVATITNNDGSAYYPDSVKGRFTISRDKAKNTLFLQMTSLKSEDTAMYYCARETGFGSSYLFDYWGQGTLVTVSA", "VL": "NIVMTQTPKFLLVSAGDRVTITCKASQSVSNDVAWYQQKPGQSPKLLIYFATNRYTGVPNRFTGSGYGTEFTFTISSVQAEDLAVYFCQQDYSSPTFGGGTKLEIK", "modifications": "MC-MMAF on cysteines after TCEP reduction, sites not stated"}, "B5": {"name": "106D5G3D10-MMAF (antibody, DAR 8, V domains shown)", "VH": "EVQLVESGGGLVKPGGSLKLSCAASGFTFSDYGMHWVRQAPEKGLEWVGYISSGTYVVYYADTVKGRFTISRDNAKNTLFLQMTSLRSEDTAIYYCSTYGSNPFDYWGQGTTLTVSS", "VL": "QLVLTQSPAIMSASPGEKVTITCSATSSVSSMHWFQQKPVTSPKLWIYSTSNLASGVPTRFSGSGSGTSYSLTISRMEAEDAATYYCQQRSGYPPIFTFGSGTKLEIK", "modifications": "MC-MMAF on cysteines after TCEP reduction, sites not stated"}, "B6": {"name": "28D4E6A9-MMAF (antibody, DAR 8, V domains shown)", "VH": "DVQLVESGGGLVRPGGSLKLSCAASGFTFSNYVMSWARQSPEKRLEWVAEISTGGSHTYYSDTVTGRFTISRDNAKKALYLEMSSLRSEDTAIYYCIMFYYGSSYSMDYWGQGTSVTVSS", "VL": "DIQMTQSTSSLSASLGDRITISCRASQDIRNYLNWYQQKPDGTVKLLIYHTSRLHSGVPSRFSGSGSGTDYSLTISNLEQEDIATYFCQQGDTLPLTFGAGTRLELK", "modifications": "MC-MMAF on cysteines after TCEP reduction, sites not stated"}, "B7": {"name": "36A10D8B12-MMAF (antibody, DAR 8, V domains shown)", "VH": "DVQLQESGPGMVKPSQSLSLTCTVTGYSITSGYDWHWIRHFPGNKLEWMGYISYSGNTNYNPSLKSRISITHNTSKNHFFLRLNSVTTEDTATYYCARGYGNWDAMDYWGQGTSVTVSS", "VL": "DIVMTQSQKFMSTSVGDRVSVTCKASQIVDTNVAWYQQKPGQSPKALISSASYRYSGVPDRFTGSGSGTDFTLTISNVQSEDLAEYFCQQYNSYPLTFGAGTKLELT", "modifications": "MC-MMAF on cysteines after TCEP reduction, sites not stated"}, "B8": {"name": "37H9C5G2-MMAF (antibody, DAR 8, V domains shown)", "VH": "QVQLQQSDAELVRPGASVKMSCKVSGYTFTDHTIHWMKQRPEQGLEWIGYIYPRDGSGTYNEKFKGKATLTADKSSSTAYMQLNSLTSEDSAVYFCARDGSSHYWYFDVWGTGTTVTVSS", "VL": "DIQMTQSPASLSASVGETVTITCRASEIIYNYLAWYQQKQGKSPQLLVYNAKTLAEGVPSRFSGSYSGTQFSLNINSLQSEDFGIYYCQHHHDTPLTFGAGTKLDLK", "modifications": "MC-MMAF on cysteines after TCEP reduction, sites not stated"}},
  "note": "Where a chain is given by its changes, count along the chain named.",
  "data": [
    {"molecular_target": "T1, human TPBG (full length, on cells) (human, UniProt Q13641 32-420)", "T1 sequence (looked up)": "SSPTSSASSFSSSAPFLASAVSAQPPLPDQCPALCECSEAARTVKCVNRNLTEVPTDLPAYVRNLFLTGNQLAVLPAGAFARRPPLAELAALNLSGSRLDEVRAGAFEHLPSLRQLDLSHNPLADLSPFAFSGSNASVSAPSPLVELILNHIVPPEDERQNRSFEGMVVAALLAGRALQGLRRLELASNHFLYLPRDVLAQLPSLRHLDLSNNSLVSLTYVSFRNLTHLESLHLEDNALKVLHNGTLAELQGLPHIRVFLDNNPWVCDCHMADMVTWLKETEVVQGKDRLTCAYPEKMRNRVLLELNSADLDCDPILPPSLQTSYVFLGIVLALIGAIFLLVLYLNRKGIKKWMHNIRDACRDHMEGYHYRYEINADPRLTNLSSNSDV", "test": "cell-based or functional assay", "units": {"EC50 of cytotoxicity on TPBG-positive NCI-H1568 cells (CellTiter-Glo)": "pM"}, "values": [
      {"binder": "B1", "EC50 of cytotoxicity on TPBG-positive NCI-H1568 cells (CellTiter-Glo)": 42},
      {"binder": "B2", "EC50 of cytotoxicity on TPBG-positive NCI-H1568 cells (CellTiter-Glo)": 285},
      {"binder": "B3", "EC50 of cytotoxicity on TPBG-positive NCI-H1568 cells (CellTiter-Glo)": 1480},
      {"binder": "B4", "EC50 of cytotoxicity on TPBG-positive NCI-H1568 cells (CellTiter-Glo)": 626},
      {"binder": "B5", "EC50 of cytotoxicity on TPBG-positive NCI-H1568 cells (CellTiter-Glo)": 208},
      {"binder": "B6", "EC50 of cytotoxicity on TPBG-positive NCI-H1568 cells (CellTiter-Glo)": 38},
      {"binder": "B7", "EC50 of cytotoxicity on TPBG-positive NCI-H1568 cells (CellTiter-Glo)": 66},
      {"binder": "B8", "EC50 of cytotoxicity on TPBG-positive NCI-H1568 cells (CellTiter-Glo)": 120}
    ]}
  ]
}
